According to the supplement of paper PMC11865577:

What was measured:
Assay in all cases: pull-down binding Z-score (relative to library population); higher = stronger binding
[1] = test system: TO-N3-2 (biotin conjugate); conditions: RNA library: Library-2
How it was run: (§1)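 Cy5- or Cy3-end-labelled RNA library (1 μg) was heat-folded in phosphate/NaCl/KCl buffer and incubated 60 min at 25 °C with streptavidin beads carrying 100 pmol biotin-conjugated small molecule. After three washes, bound RNA was eluted in hot SDS and hybridised 20 h at 55.5 °C to a DNA barcode microarray. Binding was scored by subtracting a beads-only control, averaging barcoded replicate probes after dropping highest and lowest, and converting to a Z-score against library mean and standard deviation.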

[2] = test system: TO-3-N3-2 (biotin conjugate); conditions: RNA library: Library-2
How it was run: as §1

[3] = test system: TO-N3 (biotin conjugate); conditions: RNA library: Library-2
How it was run: as §1

[4] = test system: TO-3-N3 (biotin conjugate); conditions: RNA library: Library-2
How it was run: as §1

[5] = test system: G-clamp-N3 (biotin conjugate); conditions: RNA library: Library-1 (pre-miRNA loops + repeats)
How it was run: as §1

| Sequence | pull-down binding Z-score [1] | pull-down binding Z-score [2] | pull-down binding Z-score [3] | pull-down binding Z-score [4] | pull-down binding Z-score [5] |
| --- | --- | --- | --- | --- | --- |
| GCUUCUGCUGCAUGAUCUCCGAGUCCCUGGGGGUAGAGAUGAUGGGGCACUGGGAGGU [hsa-mir-1282] | 0.851 | 0.312 | 0.59 | 0.113 | 0.676 |
| UGUGAGAGCUACUAAGUCUUAUA [hsa-mir-8076] | -0.596 | -0.223 | -0.162 | 0.0311 | 0.772 |
| CAGAGAUGAAAUUGGGACUCCUCU [hsa-mir-7157] | 0.835 | 0.343 | 0.499 | 0.189 | -0.282 |
| AUACUGGAGCAAUAGAUACAGUU [hsa-mir-3692] | -0.353 | -0.389 | -0.663 | -0.727 | -0.223 |
| CUGUGGCCGGUCCCAG [hsa-mir-4656] | 0.902 | -0.0683 | 1.45 | 1.39 | -0.405 |
| ACCUUCCAAGGCUCAGAAGGU [hsa-mir-4650-1_4650-2] | -0.0713 | -0.432 | -0.702 | -0.702 | -0.155 |
| CUCACUGCAGAAUUAUUUUGAG [hsa-mir-4524a] | -0.99 | -0.267 | -0.869 | -0.62 | 0.934 |
| CGAGCCGCUUCCUCACGGCUCG [hsa-mir-4665] | -0.871 | -0.853 | -1.04 | -0.622 | 0.651 |
| UGAAGGUCACCAUGUUCUCCUUG [hsa-mir-3187] | -0.229 | -0.354 | 0.145 | 0.0716 | -0.816 |
| CAGUGGCAGAUUUUCCCAUAG [hsa-mir-4727] | -0.00285 | -0.261 | -0.439 | -0.543 | -1.12 |
| AUGAGAAAUUGGUUUCAA [hsa-mir-8063] | -0.557 | -0.245 | -0.161 | -0.191 | 1.5 |
| GAAGCGAGAUGUUUGUCUAAA [hsa-mir-6835] | 0.915 | 0.262 | 0.398 | 0.00611 | -0.211 |
| GACCAAAAGUCAACAUUAAACAACAAAUCUUGGCC [hsa-mir-5708] | -0.998 | -0.109 | -1.02 | -0.733 | -1.3 |
| GGGGGCAGGCAGGGGAUUGGCUAAGAACCUGACUCUUGC [hsa-mir-7703] | 1.75 | 1.44 | 2.48 | 2.18 | -0.0197 |
| CUGUUGUGCCUAAUUCAGAG [hsa-mir-296] | 0.492 | 0.0218 | 0.0489 | -0.165 | -0.279 |
| AUGUUCACUUGAUUAAUGGCGAAUAU [hsa-mir-1185-2_1185-1] | -0.673 | -0.39 | -0.89 | -0.629 | 0.337 |
| GACAGGGAAAAGCACACAAGGAACUUGUC [hsa-mir-3909] | -0.0273 | 0.112 | -0.0969 | -0.138 | 0.557 |
| CACACAUACAUAUAUAUAUGUUUG [hsa-mir-3149] | -0.501 | 0.18 | 0.379 | 0.618 | -0.604 |
| GCUCAAGCCACAGCAGGGUGUUUAGCGCUCUUCAGUGGCUCCAG [hsa-mir-1203] | 1.14 | -0.102 | 0.563 | -0.00832 | -1.23 |
| AGCUGGGUGGAGGCAGAGCU [hsa-mir-4291] | 1.4 | 1.23 | 2.34 | 2.46 | 1.95 |

| Sequence | pull-down binding Z-score [1] | pull-down binding Z-score [2] | pull-down binding Z-score [3] | pull-down binding Z-score [4] | pull-down binding Z-score [5] |
| --- | --- | --- | --- | --- | --- |
| GCCUCUUCUCCAUGAGAGGC [hsa-mir-885] | -1.37 | -0.322 | -1.07 | -0.689 | 1.74 |
| CUUCAGCCCCAGGAAGCCUUGGUCGGGGGCAGGAG [hsa-mir-647] | 0.849 | -0.171 | 0.594 | 0.309 | 0.744 |
| GCUGAACCCCUGCCCCUGGAGCCCCCAGCAGGGCCCUC [hsa-mir-7162] | 1.85 | 0.612 | 1.34 | 0.665 | -1.32 |
| ACAGUGGCCACAUCUCCAC [hsa-mir-1184-3_1184-2_1184-1] | 0.582 | 0.472 | 1.17 | 1.11 | -1.28 |
| CAGCCCUGCACUGAAC [hsa-mir-614] | 1.39 | 0.00113 | 0.941 | 0.285 | -1.84 |
| AGGAGGGUCC [hsa-mir-3141] | 1.02 | 0.356 | 0.766 | 0.419 | -0.0548 |
| UUCAGUUUCCUUACUGGUAA [hsa-mir-302e] | -0.299 | -0.353 | – | -0.394 | -0.769 |
| GACAUUGCCAGAGGAUGGGCAGCAGAC [hsa-mir-6855] | 1.17 | 0.334 | 0.788 | – | 2 |
| UGUGGACAAGGGCCUUGUCUUAGACAGUCACU [hsa-mir-4318] | – | 0.359 | 0.983 | 0.603 | -0.432 |
| CACGUGCUGCUUGUAUAGACAUGAG [hsa-mir-3659] | 0.528 | – | 1.11 | 0.88 | 0.468 |
| GGACCAGCCCAAAGGCCAGGCCUGACCC [hsa-mir-4780] | 1.62 | 0.11 | – | 0.125 | -0.253 |
| UUUAUGUGAACUAAAAUAUAAA [hsa-mir-513c] | -1 | -0.21 | – | -0.547 | -1.49 |
| UUUGAAGUGUUCUAAAUGGUUCAAA [hsa-mir-424] | -1.05 | – | -0.738 | -0.532 | 1.09 |
| UGGGGUUGGGGUUGGGGUUGGGGUUGGGGUUGGGGU [G4_(UGGGGU)6] | – | – | – | – | 1.14 |
| UGGGGUUGGGGUUGGGGUUGGGGUUGGGGUUGGGGUUGGGGUUGGGGU [G4_(UGGGGU)8] | – | – | – | – | 1.45 |
| GUGGAAGUGCCCACUGGUUCCA [hsa-mir-194-2] | 1.32 | 0.341 | – | 0.425 | -0.472 |
| CGCCCGACUUCGGGG [hsa-mir-4767] | 0.0319 | – | -0.314 | -0.34 | 0.767 |
| GUCUCUCUGGUUAGACCAGAUCUGAGCCUGGGAGCUCUCUGGCUAACUAGGGAAC [HIV_2014_Siegfried_nucs_1_753_1] | – | – | – | – | -0.404 |
| UGUUCACGUGGAGAGGAGUUAAACA [hsa-mir-499b] | – | 0.375 | 0.423 | 0.0485 | 0.339 |
| CACGGUGUCUGCGGGAGGAGACCAUG [hsa-mir-4757] | 0.821 | – | 0.828 | 0.515 | -0.814 |
